Results on 1 substance are retold here after PMC6234505.

This assay concerns the target GST-SHP2 PTP DAQA (substrate trapping mutant D425A/Q506A). The experiment in a line: pull-down.

Substance “YFP-GluN2B, tyrosine phosphorylated, in cell lysate (from UniProt Q00960 27-1482) (receptor)” yielded a fold more pulled down than by GST-SHP2 WT of 14 fold.
